In patent US20250066460A1:

Molecular target: complement C1s (UniProt P09871)
Test: cell-based or functional assay

Chain of UniProt P09871 (P09871 16-688 limits assumed): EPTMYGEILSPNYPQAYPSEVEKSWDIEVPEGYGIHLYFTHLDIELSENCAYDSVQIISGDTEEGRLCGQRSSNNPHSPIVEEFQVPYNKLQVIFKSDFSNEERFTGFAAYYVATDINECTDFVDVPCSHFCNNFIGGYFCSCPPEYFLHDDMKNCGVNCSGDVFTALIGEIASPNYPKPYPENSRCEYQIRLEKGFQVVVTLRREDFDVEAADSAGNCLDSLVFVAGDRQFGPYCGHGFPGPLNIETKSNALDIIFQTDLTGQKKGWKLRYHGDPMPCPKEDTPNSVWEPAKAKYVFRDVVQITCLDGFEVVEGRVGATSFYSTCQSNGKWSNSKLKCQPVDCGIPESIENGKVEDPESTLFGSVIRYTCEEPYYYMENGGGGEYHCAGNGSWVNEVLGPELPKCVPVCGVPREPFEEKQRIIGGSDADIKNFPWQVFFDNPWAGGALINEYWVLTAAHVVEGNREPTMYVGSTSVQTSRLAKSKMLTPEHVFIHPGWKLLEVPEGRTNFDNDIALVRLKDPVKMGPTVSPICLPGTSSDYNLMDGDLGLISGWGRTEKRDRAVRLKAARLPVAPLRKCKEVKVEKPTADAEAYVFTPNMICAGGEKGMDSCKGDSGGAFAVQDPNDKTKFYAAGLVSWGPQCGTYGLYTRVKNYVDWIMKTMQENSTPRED

## TNT009 (antibody)
  concentration blocking C3 fixation on sNF02.2 Schwann cells opsonized with MMN-patient serum (flow cytometry): 53 µg/mL
  lowest concentration blocking C3 deposition on fixed iPSC-derived motor neurons (titration 3-200 µg/mL): 12 µg/mL
